In this experiment the target is anthrax protective antigen, wild type PA83 (Bacillus anthracis) (UniProt P13423).
Chain of anthrax protective antigen, wild type PA83 (Bacillus anthracis) (P13423 30-764): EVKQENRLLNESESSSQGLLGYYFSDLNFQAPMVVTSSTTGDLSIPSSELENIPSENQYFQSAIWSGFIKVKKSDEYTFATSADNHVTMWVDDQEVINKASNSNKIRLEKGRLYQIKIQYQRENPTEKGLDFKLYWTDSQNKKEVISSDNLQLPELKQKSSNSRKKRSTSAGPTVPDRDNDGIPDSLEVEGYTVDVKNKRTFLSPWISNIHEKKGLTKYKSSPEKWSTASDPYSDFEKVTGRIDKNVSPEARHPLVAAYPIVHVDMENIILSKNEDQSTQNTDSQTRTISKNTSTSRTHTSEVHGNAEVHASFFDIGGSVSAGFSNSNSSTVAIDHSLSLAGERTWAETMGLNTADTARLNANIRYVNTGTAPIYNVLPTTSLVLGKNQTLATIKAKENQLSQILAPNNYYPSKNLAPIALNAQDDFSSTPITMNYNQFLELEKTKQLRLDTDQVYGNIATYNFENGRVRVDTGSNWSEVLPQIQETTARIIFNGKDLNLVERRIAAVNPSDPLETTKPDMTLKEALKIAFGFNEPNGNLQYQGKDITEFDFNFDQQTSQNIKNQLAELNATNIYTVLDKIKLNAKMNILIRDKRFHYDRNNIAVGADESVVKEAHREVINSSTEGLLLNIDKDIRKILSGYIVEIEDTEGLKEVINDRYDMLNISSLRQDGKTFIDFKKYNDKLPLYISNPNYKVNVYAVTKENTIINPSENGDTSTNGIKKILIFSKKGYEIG

Substance “neutralizing anti-PA mouse monoclonal antibody 14B7” displayed an IC50 (read off the curve) of 10 nM.

These data come from patent US20210221874A1.
